Results from patent publication US11491212.

Columns and labels:
[1] = molecular target: Factor X, P00742
[2] = molecular target: Factor X (FX), P00742
Chain of Factor X (FX), P00742 (P00742 whole entry, looked up): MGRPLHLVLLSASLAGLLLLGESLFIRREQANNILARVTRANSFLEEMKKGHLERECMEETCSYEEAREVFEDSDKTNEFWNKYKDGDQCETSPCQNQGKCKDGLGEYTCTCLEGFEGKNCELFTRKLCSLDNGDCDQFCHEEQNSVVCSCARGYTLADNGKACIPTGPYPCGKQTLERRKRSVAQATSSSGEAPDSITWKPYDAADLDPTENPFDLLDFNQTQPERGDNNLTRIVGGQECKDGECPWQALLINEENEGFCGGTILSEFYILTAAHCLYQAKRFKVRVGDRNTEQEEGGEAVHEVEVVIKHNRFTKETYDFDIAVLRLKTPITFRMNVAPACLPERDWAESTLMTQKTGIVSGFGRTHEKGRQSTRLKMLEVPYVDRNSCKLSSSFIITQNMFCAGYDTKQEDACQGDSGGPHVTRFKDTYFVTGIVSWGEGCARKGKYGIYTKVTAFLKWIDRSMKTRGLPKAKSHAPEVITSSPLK

Chain of Factor X, P00742 (P00742 whole entry, looked up): as above

Row | Protein | kcat [1] [s⁻¹] | % of WT kcat/KM (against Catalyst Biosciences WT FIXa) [2] [%] | KM [2] [µM] | kcat/KM for activation of FX by FIXa in the Xase complex (FVIIIa, PC/PS vesicles, Ca2+), fluorogenic Spectrafluor FXa read-out [2] [M⁻¹ s⁻¹] | % of WT kcat/KM [1] [%] | kcat/KM [1] [M⁻¹ s⁻¹] | kcat (s^-1), activation of FX by FIXa in the Xase complex [2] [s⁻¹]
1 | FIXa-D104N/K106S/Y155F/K247N/N249S/R318Y/R338E/R403E/E410N (protein) chain 1: not shown chain 2: not shown | 6.9 | 292 | 0.0518 | 1.3e+08 | – | – | –
2 | FIXa R318Y/T343R/E410N (protein) chain 1: not shown chain 2: not shown | – | – | – | – | 135 | 6.2e+07 | 3.2
3 | FIXa-I251S/R318Y/R338E/E410N (protein) chain 1: not shown chain 2: not shown | 6.4 | 849 | 0.0161 | 3.9e+08 | – | – | –
4 | FIXa K228N/K247N/N249S/R318Y/T343R/R403E/E410N (protein) chain 1: not shown chain 2: not shown | – | – | – | – | 153 | 7.1e+07 | 8.1
5 | FIXa K228N/K247N/N249S/R318Y/R338E/T343R/R403E (protein) chain 1: not shown chain 2: not shown | – | – | – | – | 636 | 2.9e+08 | 10.9
6 | FIXa-Y155F/K228N/R318Y/R338E/R403E/E410N (protein) chain 1: not shown chain 2: not shown | 6.7 | 356 | 0.0408 | 1.6e+08 | – | – | –
7 | FIXa K228N/R318Y/R338E/T343R/R403E/E410N (protein) chain 1: not shown chain 2: not shown | – | – | – | – | 593 | 2.7e+08 | 10.5
8 | FIXa Y155F/R318Y/T343R/E410N (protein) chain 1: not shown chain 2: not shown | – | – | – | – | 326 | 1.5e+08 | 5
9 | FIXa Y155F/K247N/N249S/R403E/E410N (protein) chain 1: not shown chain 2: not shown | – | – | – | – | 53 | 2.4e+07 | 2.7
10 | FIXa-Y155F/K247N/N249S/R318Y/R338E/R403E/E410N (protein) chain 1: not shown chain 2: not shown | 6.2 | 405 | 0.0363 | 1.9e+08 | – | – | –
11 | FIXa Y155F/R338E/T343R/E410N (protein) chain 1: not shown chain 2: not shown | – | – | – | – | 761 | 3.5e+08 | 6
12 | FIXa K228N/K247N/N249S/R318Y/R338E/T343R/E410N (protein) chain 1: not shown chain 2: not shown | – | – | – | – | 278 | 1.3e+08 | 4.7
13 | FIXa-Y155F/K247N/N249S/R318Y/R338E/E410N (protein) chain 1: not shown chain 2: not shown | 4.5 | 717 | 0.0147 | 3.3e+08 | – | – | –
